From publication PMC12129041, “Unique characteristics of autoantibodies targeting MET in patients with breast and lung cancer” (JCI Insight, 2025) come the findings set out here.

Experiment [1] concerns the target T1, SEMA, the ligand-binding domain of MET (Homo sapiens, UniProt P08581).
T1 construct: source: Expi293F, transient transfection, purified from supernatant (Ni-NTA); not shown: His6, C-terminal, kept; Avi-Tag, C-terminal, kept
Kind of experiment: ELISA; plates coated with 1 μg/mL MET or SEMA in PBS overnight at 4°C; blocked with PBS, 3% BSA, 20 mM EDTA, 0.05% Tween 20; mAbs from 64 μg/mL in 4-fold dilutions, 1 h room temperature; anti-IgG-HRP, OD650. The note with it: both partners purified.

The target of experiment [2] is T2, extracellular portion of MET (EC-MET) (human, UniProt P08581).
T2 construct: MET, human, 908-amino acid extracellular portion; tags printed as HHHHHH and …; EC-MET was biotinylated with BirA for cell sorting only; also called recombinant ectodomain of MET; source: Expi293F, transient transfection, purified from supernatant (Ni-NTA); not shown: His6, C-terminal, kept; Avi-Tag, C-terminal, kept
Described as above. The note with it: both partners purified.

T1 sequence (P08581 27-515): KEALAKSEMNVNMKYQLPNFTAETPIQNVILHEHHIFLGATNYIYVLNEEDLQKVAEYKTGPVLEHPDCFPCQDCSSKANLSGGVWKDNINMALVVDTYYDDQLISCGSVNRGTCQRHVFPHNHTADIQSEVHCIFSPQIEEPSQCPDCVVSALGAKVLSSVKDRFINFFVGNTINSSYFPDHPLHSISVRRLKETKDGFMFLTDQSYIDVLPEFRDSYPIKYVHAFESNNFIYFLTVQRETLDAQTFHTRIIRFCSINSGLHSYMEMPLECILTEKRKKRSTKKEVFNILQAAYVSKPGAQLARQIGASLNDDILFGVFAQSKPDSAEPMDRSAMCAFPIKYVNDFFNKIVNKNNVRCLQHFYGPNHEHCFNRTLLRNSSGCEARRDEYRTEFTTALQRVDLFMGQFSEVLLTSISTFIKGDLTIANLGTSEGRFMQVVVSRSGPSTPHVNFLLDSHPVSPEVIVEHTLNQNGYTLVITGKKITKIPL
T2 sequence (P08581 25-932): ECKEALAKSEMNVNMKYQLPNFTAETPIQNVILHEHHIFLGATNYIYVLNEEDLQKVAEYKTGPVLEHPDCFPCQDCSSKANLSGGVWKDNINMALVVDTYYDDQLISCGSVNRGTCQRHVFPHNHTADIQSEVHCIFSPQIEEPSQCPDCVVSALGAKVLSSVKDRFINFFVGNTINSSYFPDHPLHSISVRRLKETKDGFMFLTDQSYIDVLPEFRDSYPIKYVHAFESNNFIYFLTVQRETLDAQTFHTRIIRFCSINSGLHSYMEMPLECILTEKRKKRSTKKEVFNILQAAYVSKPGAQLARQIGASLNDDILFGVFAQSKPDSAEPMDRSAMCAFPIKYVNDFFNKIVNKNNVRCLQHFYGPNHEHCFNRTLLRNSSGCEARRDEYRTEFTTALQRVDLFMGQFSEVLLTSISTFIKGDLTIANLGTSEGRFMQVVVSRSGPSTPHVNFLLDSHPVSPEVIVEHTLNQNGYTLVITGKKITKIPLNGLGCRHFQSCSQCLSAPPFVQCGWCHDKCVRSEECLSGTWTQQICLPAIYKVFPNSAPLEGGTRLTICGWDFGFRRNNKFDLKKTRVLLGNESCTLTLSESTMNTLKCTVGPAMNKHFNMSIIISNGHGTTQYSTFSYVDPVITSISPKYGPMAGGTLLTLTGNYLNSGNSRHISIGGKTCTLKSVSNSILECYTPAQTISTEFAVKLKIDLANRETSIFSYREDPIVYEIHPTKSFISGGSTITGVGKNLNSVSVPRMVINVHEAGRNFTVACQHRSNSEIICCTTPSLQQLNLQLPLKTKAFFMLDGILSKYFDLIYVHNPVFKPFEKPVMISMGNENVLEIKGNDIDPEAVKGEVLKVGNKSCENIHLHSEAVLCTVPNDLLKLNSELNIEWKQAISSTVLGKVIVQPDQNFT

B1: mAb 69B253 (antibody, V domains shown)
VH: EVQLVESGGALVQPGGSLRLSCAASGFTFSSYGMGWVRQAPGKGLEWVSVIIGSGGSTSYVDSVRGRFTISRDNSRNMVYLQMSSLTVDDTAVYYCAKAACGVGFCYRSHWGQGTRVTVSS
VL: SLSVSPGETVTLSCRASQSVSSNLAWYQHKPGQAPRLLIHDASTRATGIPVRFSGSGSGTDFTLTISSLQSEDFAVYYCQHYYNWPYGFAQGTKLEIK
notes: heavy chain V(D)J region; light chain VJ region; light chain constant region of the Ig expression vector; Cloned from a MET-enriched B cell of a cancer patient; detected with anti-IgG secondary antibody; source: Expi293F, cotransfected heavy and light chain vectors, purified (protein A)
As for B1, the binding result in experiment [1] and in experiment [2] was “binds” each time.
